{"source": "paper PMC12160025", "about": "“Limitations of the radiotheranostic concept in neuroendocrine tumors due to lineage-dependent somatostatin receptor expression on hematopoietic stem and progenitor cells” (Theranostics, 2025)", "key": {"[1]": {"tested_on": "human CD34+ HSPC subpopulations", "assay": "Cell proliferation (CellTrace Violet) and cell death after radioligand treatment", "format": "cell-based", "details": "50 kBq/well, 4 days", "protocol": "BMMCs were thawed in 90% IMDM with GlutaMAX, 10% FBS, and 20 µg/ml DNAse. Cells were washed and resuspended in cold FACS buffer for CD34+ isolation using the Miltenyi Biotec CD34 MicroBead Kit (#130-046-702) as per manufacturer instructions. CellTrace™ Violet (CTV, Thermo Scientific, C34557) staining was conducted based on the CD34^+ cell count (0.05 µl CTV/ml/ 1,500,000 cells) to determine the number of divisions undergone by a cell at the time of analysis. Following a 20 min incubation at 37 °C, the cells were centrifuged and resuspended in serum-free medium composed of IMDM with GlutaMAX and 20% BIT9500 (Stem Cell Technologies, 09500) supplemented with three cytokines involved in stem cell maintenance: SCF (50 ng/ml, PeproTech, 300-07), TPO (12.5 ng/ml, PeproTech, 300-18), andFlt3-L (50 ng/ml, PeproTech, 300-19). 30,000 cells were seeded in 24-well plates and analyzed by flow cytometry either immediately (day 0) or after a 4-day incubation period at 37 °C with 5% CO2 (day 4) following 30 min antibody staining and additional 15 min Annexin V (APC) binding (Biolegend, 640920). The antibodies used were as follow: CD34-APC-Cy7 (Biolegend, 343514), CD38-FITC (Biolegend, 356610), CD90-PE-Cy5 (Biolegend, 328112), CD123-PE (Biolegend, 306006), CD45RA-PE-Cy7 (Biolegend, 202316).\nFor radioligand treatment, cells were treated with 50 kBq/well (500 µl/well; 200 MBq/nmol) of^ 177Lu-DOTA-TOC or ^177Lu-DOTA-JR11 for the entire incubation period of 4 days. […] Untreated cells served as controls. A total of n=16 samples were analyzed.\nIn this experiment, flow cytometry was conducted on a Miltenyi MACSQuant analyzer equipped with three lasers - blue (488 nm, 30 mW), red (640 nm, 20mW), and violet (405 nm, 40 mW). For each sample, 50,000 events were recorded. MACSQuantify™ Software was used for data acquisition and Flowjo 9.0-10.10 (BD Biosciences, USA) was employed for flow cytometric data analysis. […] To simplify the comparison between groups, we calculated a “proliferation score” per sample. The proliferation score was defined as the weighted sum of all proliferations using the formula: \"Proliferation score = 1*(% one division) + 2*(% two divisions) + 3*(% three division) + 4*(% four division) + 5*(% five divisions) + 6*(% six division) + 7* (% > six divisions). A higher weighted sum indicated more cell proliferation events."}, "[2]": {"details": "human, in vivo; cited from earlier work"}, "[3]": {"details": "human, in vivo; cited from earlier work", "remark": "listed apart in the source"}, "[4]": {"details": "high-sensitivity samples (n = 8)"}}, "note": "Positions of bridges follow the written chain, without caps; N, C: chain ends. Non-standard residues stand in square brackets, D forms with d. Residues, ends and D or L forms follow the SMILES beside them. *: point of attachment. DOTA = O=C(O)CN1CCN(CC(=O)O)CCN(CC(=O)*)CCN(CC(=O)O)CC1; dPhe(4-NHCONH2) = NC(=O)Nc1ccc(C[C@@H](N)C(=O)O)cc1; Dihydroorotyl(S) = O=C1C[C@@H](C(=O)*)NC(=O)N1; Phe(4-Cl) = N[C@@H](Cc1ccc(Cl)cc1)C(=O)O; Phe(4-NH2) = Nc1ccc(C[C@H](N)C(=O)O)cc1"}
{"molecule": "C[C@@H](O)[C@@H]1NC(=O)[C@H](CCCCN)NC(=O)[C@@H](Cc2ccc(NC(N)=O)cc2)NC(=O)[C@H](Cc2ccc(NC(=O)[C@@H]3CC(=O)NC(=O)N3)cc2)NC(=O)[C@H](NC(=O)[C@H](Cc2ccc(Cl)cc2)NC(=O)CN2CCN(CC(=O)O)CCN(CC(=O)O)CCN(CC(=O)O)CC2)CSSC[C@@H](C(=O)N[C@H](Cc2ccc(O)cc2)C(N)=O)NC1=O", "note": "[^177Lu-DOTA-JR11, metal not drawn] ({DOTA}-[Phe(4-Cl)][dC][Phe(4-NH2)](Dihydroorotyl(S))[dPhe(4-NHCONH2)]KTC[dY]-NH2; disulfide 2-7 (inferred); C-terminus assumed)", "values": [{"measurement": "Cell death compared to untreated cells", "setting": "[1]; HSPC subpopulations", "value": "highest rates of cell death"}, {"measurement": "Proliferation compared to untreated cells, across all subpopulations", "setting": "[1]; n = 16, all HSPC subpopulations", "value": "69-79%"}, {"measurement": "Proliferation in HSC relative to untreated, mean ± SD", "setting": "[1]; [4]", "value": "42 ± 17", "unit": "%"}, {"measurement": "Proliferation in HSC relative to untreated, median", "setting": "[1]; [4]", "value": 44, "unit": "%"}, {"measurement": "Patients with prolonged grade 4 hematotoxicity", "setting": "[2]", "value": "4 of 7"}, {"measurement": "Incidence of t-MN", "setting": "[3]", "value": 5, "unit": "%"}, {"measurement": "Patients with t-MN", "setting": "[3]", "value": "2/40"}]}
